For one molecule, % of ER dimer (N-SIM) results are on record in publication PMC5433938.

Assay [1] addresses T1, estrogen receptor alpha (ERα) (human (endogenous in MCF-7 and T-47D)), P03372.
T1 chain: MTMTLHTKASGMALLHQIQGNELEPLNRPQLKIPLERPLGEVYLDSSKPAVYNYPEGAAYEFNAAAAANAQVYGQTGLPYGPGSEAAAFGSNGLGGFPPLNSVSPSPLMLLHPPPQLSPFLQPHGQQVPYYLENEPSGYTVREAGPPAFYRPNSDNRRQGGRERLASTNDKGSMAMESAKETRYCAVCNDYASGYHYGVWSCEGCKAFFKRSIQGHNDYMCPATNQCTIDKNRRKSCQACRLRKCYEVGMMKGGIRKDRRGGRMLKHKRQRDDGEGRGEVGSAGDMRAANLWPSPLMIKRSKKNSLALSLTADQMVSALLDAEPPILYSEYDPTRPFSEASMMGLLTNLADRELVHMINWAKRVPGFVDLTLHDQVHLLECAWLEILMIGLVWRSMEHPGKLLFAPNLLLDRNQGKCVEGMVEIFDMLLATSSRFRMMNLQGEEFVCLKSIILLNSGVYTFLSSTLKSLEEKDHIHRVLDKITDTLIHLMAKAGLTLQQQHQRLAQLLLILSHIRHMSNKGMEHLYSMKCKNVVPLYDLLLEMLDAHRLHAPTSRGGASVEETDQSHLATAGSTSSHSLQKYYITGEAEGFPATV
Description: structured illumination microscopy (N-SIM) of double immunofluorescence; T-47D cells, formalin-fixed paraffin cell-block sections; two primary antibodies, Alexa Fluor 488 and 594 secondaries; % of ER dimer = yellow area/(yellow + green + red areas) x 100. To be noted: remark: other sources report otherwise.

Assay [2] has as its target T1, estrogen receptor alpha (ERα) (human …). Description: structured illumination microscopy (N-SIM) of double immunofluorescence; MCF-7 cells, formalin-fixed paraffin cell-block sections; two primary antibodies, Alexa Fluor 488 and 594 secondaries; % of ER dimer = yellow area/(yellow + green + red areas) x 100; homodimer also followed with 10 nM E2 for 15, 45, 90 min. To be noted: remark: other sources report otherwise.

B1: estrogen receptor alpha (ERα), P03372 1-595 (receptor)
chain: MTMTLHTKASGMALLHQIQGNELEPLNRPQLKIPLERPLGEVYLDSSKPAVYNYPEGAAYEFNAAAAANAQVYGQTGLPYGPGSEAAAFGSNGLGGFPPLNSVSPSPLMLLHPPPQLSPFLQPHGQQVPYYLENEPSGYTVREAGPPAFYRPNSDNRRQGGRERLASTNDKGSMAMESAKETRYCAVCNDYASGYHYGVWSCEGCKAFFKRSIQGHNDYMCPATNQCTIDKNRRKSCQACRLRKCYEVGMMKGGIRKDRRGGRMLKHKRQRDDGEGRGEVGSAGDMRAANLWPSPLMIKRSKKNSLALSLTADQMVSALLDAEPPILYSEYDPTRPFSEASMMGLLTNLADRELVHMINWAKRVPGFVDLTLHDQVHLLECAWLEILMIGLVWRSMEHPGKLLFAPNLLLDRNQGKCVEGMVEIFDMLLATSSRFRMMNLQGEEFVCLKSIILLNSGVYTFLSSTLKSLEEKDHIHRVLDKITDTLIHLMAKAGLTLQQQHQRLAQLLLILSHIRHMSNKGMEHLYSMKCKNVVPLYDLLLEMLDAHRLHAPTSRGGASVEETDQSHLATAGSTSSHSLQKYYITGEAEGFPATV
Turning to B1, the % of ER dimer (N-SIM) in assay [1] came out at 13.4%; in assay [2], 23%.
